Article doi:10.1101/641308

Target: OcwA (Outer cell-wall protein A), nonaheme cytochrome TherJR_2595 from Thermincola potens JR (Thermincola potens JR)
Assay: SEC

“OcwA (Outer cell-wall protein A), nonaheme cytochrome TherJR_2595 from Thermincola potens JR (natural protein)” was tested, and the stoichiometry N was 2.
